The text below walks through data of publication PMC6616073.

No end group written: not given here.

Sequence of membrane-bound Torpedo californica nicotinic acetylcholine receptor (Torpedo californica) (P02710 25-461 limits assumed, chain 1 of 4): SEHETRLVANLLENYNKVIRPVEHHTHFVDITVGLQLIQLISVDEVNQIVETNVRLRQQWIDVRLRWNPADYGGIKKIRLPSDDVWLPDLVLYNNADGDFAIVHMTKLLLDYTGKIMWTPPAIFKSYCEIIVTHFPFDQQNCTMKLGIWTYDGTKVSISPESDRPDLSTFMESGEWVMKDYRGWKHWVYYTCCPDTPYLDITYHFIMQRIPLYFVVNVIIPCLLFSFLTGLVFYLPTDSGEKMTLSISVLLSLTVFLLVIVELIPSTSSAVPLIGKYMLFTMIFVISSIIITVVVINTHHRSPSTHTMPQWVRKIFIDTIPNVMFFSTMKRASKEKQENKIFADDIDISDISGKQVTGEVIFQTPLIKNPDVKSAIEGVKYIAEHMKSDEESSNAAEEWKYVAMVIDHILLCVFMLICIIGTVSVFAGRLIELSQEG
Sequence of membrane-bound Torpedo californica nicotinic acetylcholine receptor (Torpedo californica) (P02712 25-493 limits assumed, chain 2 of 4, further chain): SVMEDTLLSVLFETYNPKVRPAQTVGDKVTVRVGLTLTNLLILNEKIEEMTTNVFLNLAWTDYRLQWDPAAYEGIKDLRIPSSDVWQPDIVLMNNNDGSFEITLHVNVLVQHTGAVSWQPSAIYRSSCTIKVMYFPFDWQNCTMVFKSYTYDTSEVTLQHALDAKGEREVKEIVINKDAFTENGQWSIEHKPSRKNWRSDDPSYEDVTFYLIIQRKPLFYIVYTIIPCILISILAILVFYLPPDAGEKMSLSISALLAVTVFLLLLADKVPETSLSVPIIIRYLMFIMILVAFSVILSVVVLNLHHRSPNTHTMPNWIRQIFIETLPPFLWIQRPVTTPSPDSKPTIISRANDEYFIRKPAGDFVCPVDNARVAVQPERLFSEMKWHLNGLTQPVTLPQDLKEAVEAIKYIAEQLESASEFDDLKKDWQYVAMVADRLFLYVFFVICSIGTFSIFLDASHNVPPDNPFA
Sequence of membrane-bound Torpedo californica nicotinic acetylcholine receptor (Torpedo californica) (P02714 18-506 limits assumed, chain 3 of 4, further chain): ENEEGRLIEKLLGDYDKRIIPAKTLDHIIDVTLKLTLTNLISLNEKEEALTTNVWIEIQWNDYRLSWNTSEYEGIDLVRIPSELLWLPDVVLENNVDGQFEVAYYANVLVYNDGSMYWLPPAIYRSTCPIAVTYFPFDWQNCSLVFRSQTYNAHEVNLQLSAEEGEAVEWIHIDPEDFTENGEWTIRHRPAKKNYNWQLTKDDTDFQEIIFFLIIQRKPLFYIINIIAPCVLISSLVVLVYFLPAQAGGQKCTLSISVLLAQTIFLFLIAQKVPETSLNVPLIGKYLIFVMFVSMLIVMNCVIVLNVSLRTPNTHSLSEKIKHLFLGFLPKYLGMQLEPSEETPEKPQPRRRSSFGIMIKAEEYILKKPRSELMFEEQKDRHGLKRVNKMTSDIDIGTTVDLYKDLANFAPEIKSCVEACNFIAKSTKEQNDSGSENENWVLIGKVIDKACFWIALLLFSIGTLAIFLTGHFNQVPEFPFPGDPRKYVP
Sequence of membrane-bound Torpedo californica nicotinic acetylcholine receptor (Torpedo californica) (P02718 22-522 limits assumed, chain 4 of 4, further chain): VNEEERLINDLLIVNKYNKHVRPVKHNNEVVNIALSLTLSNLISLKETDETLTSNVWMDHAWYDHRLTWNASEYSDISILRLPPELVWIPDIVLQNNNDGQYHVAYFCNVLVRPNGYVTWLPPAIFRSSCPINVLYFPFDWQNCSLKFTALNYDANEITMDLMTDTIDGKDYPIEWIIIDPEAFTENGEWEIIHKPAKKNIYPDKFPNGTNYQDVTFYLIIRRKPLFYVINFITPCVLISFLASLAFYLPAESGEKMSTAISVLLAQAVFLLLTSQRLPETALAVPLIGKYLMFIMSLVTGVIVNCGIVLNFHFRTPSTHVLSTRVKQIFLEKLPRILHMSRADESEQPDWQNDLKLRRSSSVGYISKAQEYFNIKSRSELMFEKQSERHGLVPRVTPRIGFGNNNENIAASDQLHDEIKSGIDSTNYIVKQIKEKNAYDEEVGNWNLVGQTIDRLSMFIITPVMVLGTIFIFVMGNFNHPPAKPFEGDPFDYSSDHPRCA

The assay addresses membrane-bound Torpedo californica nicotinic acetylcholine receptor (Torpedo californica). Put plainly: radioligand binding.
In turn, CTRTYYTPTRMC [Lynx1 short linear (4), shorter loop II fragment of human Lynx1 with free terminal Cys] returned an IC50 of 15.6 µM.

On to TTRTYYTPTRMKVSK [Lynx1 linear (2), synthetic 15-membered loop II fragment of human Lynx1], for which the IC50 was determined as 13.2 µM.

Turning to CTRTYYTPTRMC (not fully specified (bridges); cysteine pairing not given here) [Lynx1 short (3), shorter loop II fragment of human Lynx1 with terminal Cys, disulfide-cyclised], the IC50 is 74.1 µM.

CTTRTYYTPTRMKVSKC (not fully specified (bridges); cysteine pairing not given here) gave an IC50 of 4.9 µM.

In general, IC50 refers to the concentration needed to halve the response being measured. Higher therefore signals lower potency.
